Results taken from doi:10.1101/2023.12.18.572191, “Broadly neutralizing antibody induction by non-stabilized SARS-CoV-2 Spike mRNA vaccination in nonhuman primates” (bioRxiv, 2023).

Target: T1, SARS-CoV-2 S HexaPro Protein (SARS-CoV-2, Wuhan-Hu-1, stabilised)
T1 construct: also called Hexapro spike; SARS-CoV-2 spike ectodomain
Assay: cryo-EM structure
Conditions: both partners purified

B1: DH1338 antigen-binding fragment (Fab) (Fab, V domains shown)
VH: QLQLQESGPGLVKPSETLSLTCAVSGGSISRKNWSWIRQPPGKGLGWIGRISGSGGSTDYNPSLKSRVTISTDTSKNQFSLKLSSVTAADTAVYYCARVAYYEDDYGYYYTEGAFDFWGQGLRVTVSS
VL: EIVMTQSPATLSLSPGERATLSCRTSQSVSSYVAWYQQKPEQTPRLLIYDASSRATGIPDRFSGGGSGTDFTLTISSLEPEDFAVYYCQQYSNWPWTFGQGTKVEIK
notes: also called DH1338 Fab
**Q.** How did the “stoichiometry N” value turn out when B1 was run?
**A.** The value was 3.
